Test results from PMC9635297 (Molecular Biology of the Cell, 2022).

Target: the molecule itself
Experiment: SEC

B1: 6xHis-Cdc3 (natural protein)
chain: MSLKEEQVSIKQDPEQEERQHDQFNDVQIKQESQDHDGVDSQYTNGTQNDDSERFEAAESDVKVEPGLGMGITSSQSEKGQVLPDQPEIKFIRRQINGYVGFANLPKQWHRRSIKNGFSFNLLCVGPDGIGKTTLMKTLFNNDDIEANLVKDYEEELANDQEEEEGQGEGHENQSQEQRHKVKIKSYESVIEENGVKLNLNVIDTEGFGDFLNNDQKSWDPIIKEIDSRFDQYLDAENKINRHSINDKRIHACLYFIEPTGHYLKPLDLKFMQSVYEKCNLIPVIAKSDILTDEEILSFKKTIMNQLIQSNIELFKPPIYSNDDAENSHLSERLFSSLPYAVIGSNDIVENYSGNQVRGRSYPWGVIEVDNDNHSDFNLLKNLLIKQFMEELKERTSKILYENYRSSKLAKLGIKQDNSVFKEFDPISKQQEEKTLHEAKLAKLEIEMKTVFQQKVSEKEKKLQKSETELFARHKEMKEKLTKQLKALEDKKKQLELSINSASPNVNHSPVPTKKKGFLR
stoichiometry N: 2
